Data reported in publication PMC11851098 (Nucleic Acids Research, 2025).
Residue numbers refer to the chain shown, from its start. Numbers in names are those of the source.

B1: human polynucleotide phosphorylase (hPNPase), wild type, residues 46-783 (enzyme, UniProt Q8TCS8 46-783, looked up)
chain: AVAVDLGNRKLEISSGKLARFADGSAVVQSGDTAVMVTAVSKTKPSPSQFMPLVVDYRQKAAAAGRIPTNYLRREIGTSDKEILTSRIIDRSIRPLFPAGYFYDTQVLCNLLAVDGVNEPDVLAINGASVALSLSDIPWNGPVGAVRIGIIDGEYVVNPTRKEMSSSTLNLVVAGAPKSQIVMLEASAENILQQDFCHAIKVGVKYTQQIIQGIQQLVKETGVTKRTPQKLFTPSPEIVKYTHKLAMERLYAVFTDYEHDKVSRDEAVNKIRLDTEEQLKEKFPEADPYEIIESFNVVAKEVFRSIVLNEYKRCDGRDLTSLRNVSCEVDMFKTLHGSALFQRGQTQVLCTVTFDSLESGIKSDQVITAINGIKDKNFMLHYEFPPYATNEIGKVTGLNRRELGHGALAEKALYPVIPRDFPFTIRVTSEVLESNGSSSMASACGGSLALMDSGVPISSAVAGVAIGLVTKTDPEKGEIEDYRLLTDILGIEDYNGDMDFKIAGTNKGITALQADIKLPGIPIKIVMEAIQQASVAKKEILQIMNKTISKPRASRKENGPVVETVQVPLSKRAKFVGPGGYNLKKLQAETGVTISQVDEETFSVFAPTPSAMHEARDFITEICKDDQEQQLEFGAVYTATITEIRDTGVMVKLYPNMTAVLLHNTQLDQRKIKHPTALGLEVGQEIQVKYFGRDPADGRMRLSRKVLQSPATTVVRTLNDRSSIVMGEPISQSSSNSQ
B2: hPNPase G499R-S484A double mutant, residues 46-783 (enzyme, human, UniProt Q8TCS8 46-783, looked up)
chain: B1 chain with S439A, G454R
B3: hPNPase S484A mutant (inactive) (enzyme, human, UniProt Q8TCS8 46-783, looked up)
chain: B1 chain with S439A
B4: hPNPase D713Y-S484A double mutant, residues 46-783 (enzyme, human, UniProt Q8TCS8 46-783, looked up)
chain: B1 chain with S439A, D668Y
B5: hPNPase P467S-S484A double mutant, residues 46-783 (enzyme, human, UniProt Q8TCS8 46-783, looked up)
chain: B1 chain with P422S, S439A
B6: hPNPase G499R mutant, residues 46-783 (enzyme, human, UniProt Q8TCS8 46-783, looked up)
chain: B1 chain with G454R
B7: hPNPase D713Y mutant, residues 46-783 (enzyme, human, UniProt Q8TCS8 46-783, looked up)
chain: B1 chain with D668Y
B8: hPNPase P467S mutant, residues 46-783 (enzyme, human, UniProt Q8TCS8 46-783, looked up)
chain: B1 chain with P422S

How the values were obtained:
Suv3 helicase = target: T1, Suv3 helicase (UniProt Q8IYB8 23-786, Alexa 647 label (site not stated) in the MST assay); assay: MST
T1 sequence (looked up): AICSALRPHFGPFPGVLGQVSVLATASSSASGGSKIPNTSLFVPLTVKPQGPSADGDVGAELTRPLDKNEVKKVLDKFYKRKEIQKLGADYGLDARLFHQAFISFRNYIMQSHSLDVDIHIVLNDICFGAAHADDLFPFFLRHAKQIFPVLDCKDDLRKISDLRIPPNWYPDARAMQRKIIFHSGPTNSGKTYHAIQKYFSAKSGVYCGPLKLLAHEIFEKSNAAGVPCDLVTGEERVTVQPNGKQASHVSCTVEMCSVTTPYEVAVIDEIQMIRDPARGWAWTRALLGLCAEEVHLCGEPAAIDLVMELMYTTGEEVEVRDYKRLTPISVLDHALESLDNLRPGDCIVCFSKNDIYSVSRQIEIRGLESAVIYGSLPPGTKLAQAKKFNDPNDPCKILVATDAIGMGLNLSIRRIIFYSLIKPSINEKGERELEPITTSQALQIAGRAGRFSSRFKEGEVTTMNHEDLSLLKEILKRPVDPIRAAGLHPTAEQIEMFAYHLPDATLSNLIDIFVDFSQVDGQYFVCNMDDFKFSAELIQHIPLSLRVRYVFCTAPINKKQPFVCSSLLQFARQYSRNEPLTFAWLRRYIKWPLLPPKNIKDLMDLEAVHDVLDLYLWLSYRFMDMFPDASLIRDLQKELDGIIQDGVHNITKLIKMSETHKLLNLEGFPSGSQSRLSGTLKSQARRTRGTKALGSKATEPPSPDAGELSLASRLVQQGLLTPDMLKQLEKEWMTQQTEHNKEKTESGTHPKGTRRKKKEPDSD

SEC = target: the molecule itself; assay: SEC
SAXS = target: the molecule itself; assay: SAXS

| Binder | Kd (Suv3 helicase) [nM] | stoichiometry N (SEC) | stoichiometry N (SAXS) |
| --- | --- | --- | --- |
| B1 | 297 ± 80 | 3 |  |
| B2 |  | 3 |  |
| B3 |  |  | 3 |
| B4 |  | 3 |  |
| B5 |  | 3 |  |
| B6 | 474 ± 70 |  | 3 |
| B7 | 3890 ± 545 |  | 3 |
| B8 | 386 ± 64 |  | 3 |
